# Patent US9051581B2, “Defense peptides against fungal infection and method of their use” (The Curators of the University of Missouri, priority 2010, dated 2015)
# B1: ZmCKX1: recombinant maize cytokinin oxidase scaffold without peptide insert, control (protein)
# chain: LAAGTPALGDDRGRPWPASLAALALDGKLRTDSNATAAASTDFGNITSALPAAVLYPSSTGDLVALLSAANSTPGWPYTIAFRGRGHSLMGQAFAPGGVVVNMASLGDAAAPPRINVSADGRYVDAGGEQVWIDVLRASLARGVAPRSWNDYLYLTVGGTLSNAGISGQAFRHGPQISNVLEMDVITGHGEMVTCSKQLNADLFDAVLGGLGQFGVITRARIAVEPAPARARWVRFVYTDFAAFSADQERLTAPRPGGGGASFGPMSYVEGSVFVNQSLATDLANTGFFTDADVARIVALAGERNATTVYSIEATLNYDNATAAAAAVDQELASVLGTLSYVEGFAFQRDVAYAAFLDRVHGEEVALNKLGLWRVPHPWLNMFVPRSRIADFDRGVFKGILQGTDIVGPLIVYPLNKSMWDDGMSAATPSEDVFYAVSLLFSSVAPNDLARLQEQNRRILRFCDLAGIQYKTYLARHTDRSDWVRHFGAAKWNRFVEMKNKYDPKRLLSPGQDIFN
# B2: ZmCKX1-Sp2: peptide Sp2 fused to the C-terminus of the scaffold protein ZmCKX1, expressed in Pichia pastoris (protein)
# chain: LAAGTPALGDDRGRPWPASLAALALDGKLRTDSNATAAASTDFGNITSALPAAVLYPSSTGDLVALLSAANSTPGWPYTIAFRGRGHSLMGQAFAPGGVVVNMASLGDAAAPPRINVSADGRYVDAGGEQVWIDVLRASLARGVAPRSWNDYLYLTVGGTLSNAGISGQAFRHGPQISNVLEMDVITGHGEMVTCSKQLNADLFDAVLGGLGQFGVITRARIAVEPAPARARWVRFVYTDFAAFSADQERLTAPRPGGGGASFGPMSYVEGSVFVNQSLATDLANTGFFTDADVARIVALAGERNATTVYSIEATLNYDNATAAAAAVDQELASVLGTLSYVEGFAFQRDVAYAAFLDRVHGEEVALNKLGLWRVPHPWLNMFVPRSRIADFDRGVFKGILQGTDIVGPLIVYPLNKSMWDDGMSAATPSEDVFYAVSLLFSSVAPNDLARLQEQNRRILRFCDLAGIQYKTYLARHTDRSDWVRHFGAAKWNRFVEMKNKYDPKRLLSPGQDIFNMLESHAWPPRAI
# B3: ZmCKX1-Sp39: peptide Sp39 fused to the C-terminus of the scaffold protein ZmCKX1, expressed in Pichia pastoris (protein)
# chain: LAAGTPALGDDRGRPWPASLAALALDGKLRTDSNATAAASTDFGNITSALPAAVLYPSSTGDLVALLSAANSTPGWPYTIAFRGRGHSLMGQAFAPGGVVVNMASLGDAAAPPRINVSADGRYVDAGGEQVWIDVLRASLARGVAPRSWNDYLYLTVGGTLSNAGISGQAFRHGPQISNVLEMDVITGHGEMVTCSKQLNADLFDAVLGGLGQFGVITRARIAVEPAPARARWVRFVYTDFAAFSADQERLTAPRPGGGGASFGPMSYVEGSVFVNQSLATDLANTGFFTDADVARIVALAGERNATTVYSIEATLNYDNATAAAAAVDQELASVLGTLSYVEGFAFQRDVAYAAFLDRVHGEEVALNKLGLWRVPHPWLNMFVPRSRIADFDRGVFKGILQGTDIVGPLIVYPLNKSMWDDGMSAATPSEDVFYAVSLLFSSVAPNDLARLQEQNRRILRFCDLAGIQYKTYLARHTDRSDWVRHFGAAKWNRFVEMKNKYDPKRLLSPGQDIFNYNKPSFQDHSVI
# Columns and labels:
# [1] = test system: Phakopsora pachyrhizi urediniospores; test: In vitro inhibition of urediniospore germ tube growth by ZmCKX1-peptides; format: cell-based; settings: for decrease of germ tube growth in comparison to water: 230 μM (highest concentration); for decrease of germ tube growth in comparison to water / reduction of average germ tube length in comparison to water: 8 h incubation; for reduction of average germ tube length in comparison to water: 58 μM
# Protocol: Purified ZmCKX1-Sp2 and ZmCKX1-Sp39 peptides were assessed in vitro for the ability to inhibit urediniospore germination. A 25-μl water droplet containing 300 freshly harvested MOS-2008 urediniospores was incubated on a glass slide in the presence of either ZmCKX1-Sp2 or ZmCKX1-Sp39. Control treatments included urediniospores incubated in water or in the presence of ZmCKX1 alone. Germ tube growth was visualized over time and quantified by image capture and analyses as described previously.
# [2] = test system: 20 kDa Phakopsora pachyrhizi protein; test: Far-western assay for P. pachyrhizi proteins that bind the peptides; format: binding; settings: protein from germinated urediniospores; bait protein, ZmCKX1 antibody detection
# Protocol: A far-western assay was used to identify P. pachyrhizi proteins that bind to the disclosed peptides (3, 35). To prepare fungal proteins, MOS-2008 urediniospores were germinated and grown for 4 h. Fungal tissues were ground in liquid nitrogen and suspended in phosphate buffer (pH. 6.5) containing 0.1 M mannitol and Tween-20. Fungal debris was separated from soluble material by centrifugation, and the protein concentration of the soluble fraction was determined. Equal amounts of protein were loaded into the wells of an acrylamide gel, separated by SDS-PAGE, and then transferred to PVDF membrane. The membranes were incubated with a bait protein that consisted of the ZmCKX1 scaffold alone, ZmCKX1-Sp2, or ZmCKX1-Sp39. The unbound bait proteins were washed off of the blot, and the blot was incubated with ZmCKX1 polyclonal antibody (1), followed by a second antibody, anti-rabbit IgG conjugated to alkaline phosphatase (Promega, Madison, Wis.).
# [3] = test system: Phakopsora pachyrhizi urediniospores; test: Inhibition of soybean leaf infection (rust lesion formation) by ZmCKX1-peptides; format: in vivo; settings: 7 days of incubation; 115 μM; water close to 50%
# Protocol: Young, fully expanded leaves were excised from soybean plants (Williams 82) and used for assessment of ZmCKX1-peptide inhibition. Two 10-μl droplets of each ZmCKX1-peptide-urediniospore mixture or control treatment were applied to the upper surface of a single leaf. Each droplet contained 50 urediniospores mixed with either ZmCKX1-Sp2 or ZmCKX1-Sp39 at a final concentration of 115 μM. Control treatments included urediniospores in water or mixed with 115 μM ZmCKX1. Droplet treatments were replicated four times.
# Inoculated leaves were incubated for 8 h before rinsing away droplets and drying as described previously. Leaves were transferred to sealed Petri dishes and incubated in a growth chamber at 22° C. and 90% RH, under a 12 h light/dark cycle. The percentage of inoculations that produced rust lesions was recorded at 3 to 4 day intervals for 27 days.
Molecule,decrease of germ tube growth in comparison to water [1] [%],"germ tube growth inhibition ([1]; all concentrations except 230 μM, 8 h)",detection of fungal protein band in far-western blot [2],reduction of average germ tube length in comparison to water [1] [%],inoculations that produced lesions [3] [%]
B1,26,less than 10%,absent,–,–
B2,94,–,specifically interacted with a fungal protein approximately 20 kDa in size,52,13
B3,91,–,specifically interacted with a fungal protein approximately 20 kDa in size,36,16
